The chains are these.
B1: TPTE2 peptide 92-107 (Phosphatidylinositol 3,4,5-trisphosphate 3-phosphatase TPTE2), 16-mer library wild type / TLN1 PTB (TLN1 Phosphotyrosine-binding (PTB) domain, residues 309-401) (parent complex)
chain 1: LADLIFTDSKLYIPLE
chain 2: GVSFFLVKEKMKGKNKLVPRLLGITKECVMRVDEKTKEVIQEWNLTNIKRWAASPKSFTLDFGDYQDGYYSVQTTEGEQIAQLIAGYIDIILK
B2: AMOTL2 peptide 66-81 (Angiomotin-like protein 2), 16-mer library wild type / TNKS ANK (TNKS 12 ANK repeats, residues 174-649) (parent complex)
chain 1: LQQATRQEPQGQEHQG
chain 2: TGVPAVSGALRELLEACRNGDVSRVKRLVDAANVNAKDMAGRKSSPLHFAAGFGRKDVVEHLLQMGANVHARDDGGLIPLHNACSFGHAEVVSLLLCQGADPNARDNWNYTPLHEAAIKGKIDVCIVLLQHGADPNIRNTDGKSALDLADPSAKAVLTGEYKKDELLEAARSGNEEKLMALLTPLNVNCHASDGRKSTPLHLAAGYNRVRIVQLLLQHGADVHAKDKGGLVPLHNACSYGHYEVTELLLKHGACVNAMDLWQFTPLHEAASKNRVEVCSLLLSHGADPTLVNCHGKSAVDMAPTPELRERLTYEFKGHSLLQAAREADLAKVKKTLALEIINFKQPQSHETALHCAVASLHPKRKQVTELLLRKGANVNEKNKDFMTPLHVAAERAHNDVMEVLHKHGAKMNALDTLGQTALHRAALAGHLQTCRLLLSYGSDPSIISLQGFTAAQMGNEAVQQILSESTPIRTSD

The first experiment covers variants of B1. The experiment in a line: proteomic peptide phage display deep mutational scan (ProP-PD DMS): M13 P8 16-mer library selected against immobilised GST-tagged bait for four days (rounds), NGS of the eluted pools per day and pseudo-replica; bait immobilised on MaxiSorp plates (10 µg), library pre-cleared on GST, 2 h binding at 4 °C, five washes; one round per day, days 1-4; value from days 2 and 3.
As for chain 1 I5Q, the screen value was 0.000996 average fractional NGS count over selection days 2 and 3 (reads of this peptide / all reads for the bait, averaged over ….

On to chain 1 I5W, for which the screen value is 0.00126 average fractional NGS count over selection days 2 and 3 (reads of this peptide / all reads for the bait, averaged over ….

For chain 1 I5P, the screen value was 0.000122 average fractional NGS count over selection days 2 and 3 (reads of this peptide / all reads for the bait, averaged over ….

For chain 1 I5G, the screen value is 0.000313 average fractional NGS count over selection days 2 and 3 (reads of this peptide / all reads for the bait, averaged over ….

As for chain 1 I5H, the screen value is 0.000463 average fractional NGS count over selection days 2 and 3 (reads of this peptide / all reads for the bait, averaged over ….

chain 1 I5Y: the screen value was 0.00125 average fractional NGS count over selection days 2 and 3 (reads of this peptide / all reads for the bait, averaged over ….

Turning to chain 1 I5E, the screen value is 0.000204 average fractional NGS count over selection days 2 and 3 (reads of this peptide / all reads for the bait, averaged over ….

Consider chain 1 K10Q, for which the screen value was 0.00103 average fractional NGS count over selection days 2 and 3 (reads of this peptide / all reads for the bait, averaged over ….

As for chain 1 K10M, the screen value was 0.0107 average fractional NGS count over selection days 2 and 3 (reads of this peptide / all reads for the bait, averaged over ….

For chain 1 K10N, the screen value was 0.000537 average fractional NGS count over selection days 2 and 3 (reads of this peptide / all reads for the bait, averaged over ….

With chain 1 K10H, the screen value is 0.00033 average fractional NGS count over selection days 2 and 3 (reads of this peptide / all reads for the bait, averaged over ….

Take chain 1 K10L: the screen value is 0.000166 average fractional NGS count over selection days 2 and 3 (reads of this peptide / all reads for the bait, averaged over ….

chain 1 K10F: the screen value was 0.000223 average fractional NGS count over selection days 2 and 3 (reads of this peptide / all reads for the bait, averaged over ….

With chain 1 K10A, the screen value is 0.0017 average fractional NGS count over selection days 2 and 3 (reads of this peptide / all reads for the bait, averaged over ….

Turning to chain 1 K10I, the screen value was 0.000133 average fractional NGS count over selection days 2 and 3 (reads of this peptide / all reads for the bait, averaged over ….

As for chain 1 K10Y, the screen value was 0.00128 average fractional NGS count over selection days 2 and 3 (reads of this peptide / all reads for the bait, averaged over ….

Take chain 1 K10G: the screen value was 0.000514 average fractional NGS count over selection days 2 and 3 (reads of this peptide / all reads for the bait, averaged over ….

Turning to chain 1 K10R, the screen value is 0.00219 average fractional NGS count over selection days 2 and 3 (reads of this peptide / all reads for the bait, averaged over ….

Consider chain 1 K10P, for which the screen value is 0.000281 average fractional NGS count over selection days 2 and 3 (reads of this peptide / all reads for the bait, averaged over ….

chain 1 K10E: the screen value was 0.00277 average fractional NGS count over selection days 2 and 3 (reads of this peptide / all reads for the bait, averaged over ….

With chain 1 T7H, the screen value is 0.000516 average fractional NGS count over selection days 2 and 3 (reads of this peptide / all reads for the bait, averaged over ….

Consider chain 1 T7N, for which the screen value was 0.000232 average fractional NGS count over selection days 2 and 3 (reads of this peptide / all reads for the bait, averaged over ….

Regarding chain 1 T7V, the screen value is 0.000833 average fractional NGS count over selection days 2 and 3 (reads of this peptide / all reads for the bait, averaged over ….

Take chain 1 T7Y: the screen value was 0.000282 average fractional NGS count over selection days 2 and 3 (reads of this peptide / all reads for the bait, averaged over ….

Consider chain 1 T7W, for which the screen value is 0.000447 average fractional NGS count over selection days 2 and 3 (reads of this peptide / all reads for the bait, averaged over ….

In the case of chain 1 S9N, the screen value was 0.00167 average fractional NGS count over selection days 2 and 3 (reads of this peptide / all reads for the bait, averaged over ….

Regarding chain 1 Y12F, the screen value was 0.00012 average fractional NGS count over selection days 2 and 3 (reads of this peptide / all reads for the bait, averaged over ….

For chain 1 Y12W, the screen value was 0.000296 average fractional NGS count over selection days 2 and 3 (reads of this peptide / all reads for the bait, averaged over ….

In the case of chain 1 D8A, the screen value was 0.000152 average fractional NGS count over selection days 2 and 3 (reads of this peptide / all reads for the bait, averaged over ….

As to chain 1 D8P, the screen value was 0.000129 average fractional NGS count over selection days 2 and 3 (reads of this peptide / all reads for the bait, averaged over ….

Consider chain 1 D8Q, for which the screen value was 0.000205 average fractional NGS count over selection days 2 and 3 (reads of this peptide / all reads for the bait, averaged over ….

On to chain 1 D8T, for which the screen value is 0.000557 average fractional NGS count over selection days 2 and 3 (reads of this peptide / all reads for the bait, averaged over ….

On to chain 1 D8Y, for which the screen value is 0.000841 average fractional NGS count over selection days 2 and 3 (reads of this peptide / all reads for the bait, averaged over ….

On to chain 1 D8N, for which the screen value is 0.00152 average fractional NGS count over selection days 2 and 3 (reads of this peptide / all reads for the bait, averaged over ….

Another experiment covers variants of B2. The description is as above.
As to chain 1 Q7W, the screen value is 0.000185 average fractional NGS count over selection days 2 and 3 (reads of this peptide / all reads for the bait, averaged over ….

Take chain 1 Q7H: the screen value was 0.00159 average fractional NGS count over selection days 2 and 3 (reads of this peptide / all reads for the bait, averaged over ….

With chain 1 A4R, the screen value is 0.000178 average fractional NGS count over selection days 2 and 3 (reads of this peptide / all reads for the bait, averaged over ….

Consider chain 1 A4Q, for which the screen value was 0.00114 average fractional NGS count over selection days 2 and 3 (reads of this peptide / all reads for the bait, averaged over ….

Regarding chain 1 A4N, the screen value is 0.000378 average fractional NGS count over selection days 2 and 3 (reads of this peptide / all reads for the bait, averaged over ….

On to chain 1 A4P, for which the screen value is 0.00156 average fractional NGS count over selection days 2 and 3 (reads of this peptide / all reads for the bait, averaged over ….

chain 1 A4L: the screen value is 0.00111 average fractional NGS count over selection days 2 and 3 (reads of this peptide / all reads for the bait, averaged over ….

For the variant chain 1 Q2T, the screen value was 0.00025 average fractional NGS count over selection days 2 and 3 (reads of this peptide / all reads for the bait, averaged over ….

As to chain 1 Q2D, the screen value is 0.000375 average fractional NGS count over selection days 2 and 3 (reads of this peptide / all reads for the bait, averaged over ….

As to chain 1 Q2N, the screen value is 0.000675 average fractional NGS count over selection days 2 and 3 (reads of this peptide / all reads for the bait, averaged over ….

chain 1 Q2M: the screen value was 0.000757 average fractional NGS count over selection days 2 and 3 (reads of this peptide / all reads for the bait, averaged over ….

As for chain 1 Q2E, the screen value was 0.00238 average fractional NGS count over selection days 2 and 3 (reads of this peptide / all reads for the bait, averaged over ….

Take chain 1 L1N: the screen value is 0.000133 average fractional NGS count over selection days 2 and 3 (reads of this peptide / all reads for the bait, averaged over ….

For the variant chain 1 L1V, the screen value was 0.00393 average fractional NGS count over selection days 2 and 3 (reads of this peptide / all reads for the bait, averaged over ….

For the variant chain 1 L1S, the screen value is 0.000161 average fractional NGS count over selection days 2 and 3 (reads of this peptide / all reads for the bait, averaged over ….

Take chain 1 L1A: the screen value is 0.00444 average fractional NGS count over selection days 2 and 3 (reads of this peptide / all reads for the bait, averaged over ….

Turning to chain 1 G11T, the screen value is 0.000177 average fractional NGS count over selection days 2 and 3 (reads of this peptide / all reads for the bait, averaged over ….

For the variant chain 1 Q12A, the screen value was 0.000321 average fractional NGS count over selection days 2 and 3 (reads of this peptide / all reads for the bait, averaged over ….

Take chain 1 Q12W: the screen value was 0.000131 average fractional NGS count over selection days 2 and 3 (reads of this peptide / all reads for the bait, averaged over ….

Regarding chain 1 Q12F, the screen value was 0.000217 average fractional NGS count over selection days 2 and 3 (reads of this peptide / all reads for the bait, averaged over ….

Turning to chain 1 Q10N, the screen value is 0.000239 average fractional NGS count over selection days 2 and 3 (reads of this peptide / all reads for the bait, averaged over ….

As for chain 1 Q10S, the screen value was 0.000273 average fractional NGS count over selection days 2 and 3 (reads of this peptide / all reads for the bait, averaged over ….

In the case of chain 1 Q15Y, the screen value was 0.00994 average fractional NGS count over selection days 2 and 3 (reads of this peptide / all reads for the bait, averaged over ….

chain 1 Q15F: the screen value was 0.000668 average fractional NGS count over selection days 2 and 3 (reads of this peptide / all reads for the bait, averaged over ….

As for chain 1 Q15D, the screen value was 0.000198 average fractional NGS count over selection days 2 and 3 (reads of this peptide / all reads for the bait, averaged over ….

As for chain 1 Q15H, the screen value was 0.00187 average fractional NGS count over selection days 2 and 3 (reads of this peptide / all reads for the bait, averaged over ….

In the case of chain 1 Q15S, the screen value is 0.00112 average fractional NGS count over selection days 2 and 3 (reads of this peptide / all reads for the bait, averaged over ….

Turning to chain 1 E13N, the screen value was 0.000173 average fractional NGS count over selection days 2 and 3 (reads of this peptide / all reads for the bait, averaged over ….

For chain 1 E13H, the screen value is 0.000694 average fractional NGS count over selection days 2 and 3 (reads of this peptide / all reads for the bait, averaged over ….

In the case of chain 1 Q3N, the screen value is 0.000319 average fractional NGS count over selection days 2 and 3 (reads of this peptide / all reads for the bait, averaged over ….

Consider chain 1 Q3D, for which the screen value is 0.000274 average fractional NGS count over selection days 2 and 3 (reads of this peptide / all reads for the bait, averaged over ….

As for chain 1 H14K, the screen value is 0.00043 average fractional NGS count over selection days 2 and 3 (reads of this peptide / all reads for the bait, averaged over ….

As to chain 1 H14R, the screen value was 0.00174 average fractional NGS count over selection days 2 and 3 (reads of this peptide / all reads for the bait, averaged over ….

chain 1 H14Q: the screen value was 0.000459 average fractional NGS count over selection days 2 and 3 (reads of this peptide / all reads for the bait, averaged over ….

chain 1 H14N: the screen value was 0.000168 average fractional NGS count over selection days 2 and 3 (reads of this peptide / all reads for the bait, averaged over ….

As for chain 1 H14S, the screen value was 0.000117 average fractional NGS count over selection days 2 and 3 (reads of this peptide / all reads for the bait, averaged over ….

Turning to chain 1 P9A, the screen value is 0.000163 average fractional NGS count over selection days 2 and 3 (reads of this peptide / all reads for the bait, averaged over ….

With chain 1 E8G, the screen value is 0.000387 average fractional NGS count over selection days 2 and 3 (reads of this peptide / all reads for the bait, averaged over ….

chain 1 E8S: the screen value is 0.000226 average fractional NGS count over selection days 2 and 3 (reads of this peptide / all reads for the bait, averaged over ….

Regarding chain 1 E8H, the screen value was 0.000322 average fractional NGS count over selection days 2 and 3 (reads of this peptide / all reads for the bait, averaged over ….

chain 1 T5N: the screen value is 0.000716 average fractional NGS count over selection days 2 and 3 (reads of this peptide / all reads for the bait, averaged over ….

These data come from paper PMC12102759 (2025).
